In US20240067729A1 (PALLEON PHARMACEUTICALS, published 2024):
Blank lines part the entries; values can stand above or below the binder they belong to.

Experiments:
[1] = target: T1, human PD-L1, his tagged (hPD-L1-his) (human, UniProt Q9NZQ7 19-238, limits assumed); assay: BLI (ForteBio Octet), recombinant human PD-L1
T1 construct: also called huPD-L1-His; recombinant human PD-L1; not shown: his tag

[2] = target: T1, human PD-L1, his tagged (hPD-L1-his); assay: BLI (ForteBio Octet), hPD-L1-his
Method: (§1) Characterization of chimeric anti-PD-L1 antibodies. ForteBio octet binding of purified chimeric antibodies and recombinant hPD-L1-his and cPD-L1-his was measured. Chimeric human antibodies were captured on AHC (Anti-human IgG-Capture) Biosensor, hPD-L1-his or cPD-L1-his analytes were titrated from 100 nM in a 2× series dilution. The buffer reference was subtracted from the signal and aligned to the baseline. KD, Kon and Koff values were generated using 1:1 fitting model as described above.
Selected h769 antibodies were tested in the blocking ELISA as described in Example 3 herein. […] Selected h769 humanized PD-L1 antibodies were characterized following removal of the deamidation motif in CDR-L3. FIG. 25 depicts the ForteBio octet binding of purified humanized antibodies and recombinant hPD-L1-his was measured.

[3] = target: T2, cynomolgus PD-L1, his tagged (cPD-L1-his) (cynomolgus (Macaca fascicularis), UniProt G7PSE7 19-238); assay: BLI (ForteBio Octet), IgG on AHC sensor, cPD-L1-his analyte, 1:1 fit
T2 construct: also called cyPD-L1-His; Cyno PD-L1
T2 sequence (G7PSE7 entry or part of it limits assumed, form in doubt): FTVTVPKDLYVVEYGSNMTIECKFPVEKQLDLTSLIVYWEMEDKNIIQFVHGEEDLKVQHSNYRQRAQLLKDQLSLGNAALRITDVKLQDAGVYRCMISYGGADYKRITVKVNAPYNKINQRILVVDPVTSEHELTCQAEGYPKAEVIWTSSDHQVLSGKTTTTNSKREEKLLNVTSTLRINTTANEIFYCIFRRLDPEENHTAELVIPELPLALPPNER
Method: as §1

[4] = target: T3, human PD-L1 expressed on cells (HCC827, NCI-H292, CHO-PD-L1, engineered CHO-K1) (human, UniProt Q9NZQ7 19-290); assay: flow cytometry on HCC827 cells, apparent Kd
T3 construct: whole, on cells; Endogenous on the human lung lines HCC827 and NCI-H292; transfected on CHO cells; also called PD-L1 on HCC827; PD-L1 on NCI-H292
T3 sequence (Q9NZQ7 19-290, change not shown): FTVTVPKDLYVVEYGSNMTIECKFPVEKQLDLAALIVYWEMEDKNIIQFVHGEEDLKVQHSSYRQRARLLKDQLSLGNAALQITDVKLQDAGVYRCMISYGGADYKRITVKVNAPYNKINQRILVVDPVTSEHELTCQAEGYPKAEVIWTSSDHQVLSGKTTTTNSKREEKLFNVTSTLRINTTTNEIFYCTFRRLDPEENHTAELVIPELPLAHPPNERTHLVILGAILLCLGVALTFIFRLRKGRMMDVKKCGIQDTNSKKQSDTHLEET
Method: (§2) FIG. 14 is a graph showing binding of chimeric PD-L1 antibodies to HCC827 (FIG. 14A) and NCI-H292 (FIG. 14B) lung epithelial cell lines. Binding was measured using a FACS analysis with a […] secondary antibody. MFI=mean fluorescence intensity.
(§3) Purified chimeric antibodies were evaluated for their ability to bind PD-L1 expressed on two human cancer cell lines. HCC827 and NCI-292 cells were incubated with titrated antibodies for 30 min at 4° C. Cells were washed and incubated with AF647-labeled goat anti-human IgG(H+L) for 30 min at 4° C. Cells were washed, fixed and analyzed on FACSCelesta.

[5] = target: T3, human PD-L1 expressed on cells (HCC827, …); assay: cell-based or functional assay
[6] = target: T1, human PD-L1, his tagged (hPD-L1-his); assay: BLI (ForteBio Octet), IgG on AHC sensor, hPD-L1-his analyte, 1:1 fit
Method: as §1

[7] = target: T3, human PD-L1 expressed on cells (HCC827, …); assay: flow cytometry on NCI-H292 cells, apparent Kd
Method: as §2, §3

[8] = target: T3, human PD-L1 expressed on cells (HCC827, …); assay: flow cytometry MFI, CHO-PD-L1 cells (10 nM) against parental CHO cells (100 nM)
Method: CHO cells were incubated with 100 nM antibodies and CHO-PD-L1 cells (from Bioassay) with 10 nM antibodies for 30 min at 4° C. Cells were washed and incubated with goat anti-human IgG(H+L) for 30 in at 4° C. The washed cells were fixed and run on FACSCelesta.

[9] = target: T4, human PD-L1 Fc fusion (hPD-L1-Fc) (human, UniProt Q9NZQ7 19-238, limits assumed); assay: blocking ELISA: antibody titrated + biotin-hPD-1-Fc on coated hPD-L1-Fc
T4 construct: not shown: Fc part
T4 sequence (Q9NZQ7 19-238 limits assumed): as the sequence (G7PSE7 entry or part of it limits assumed, form in doubt) above, with T33A, S34A, N62S, Q68R, R82Q, L173F, A185T, I192T, L215H counted along it
From the text: The plate was developed with TMB and Stop buffer, the absorbance at 450 nm was read using SpectraMax plate reader. The A450 absorbance was normalized to the control that without antibody for the percentage values. The curve and IC₅₀ were generated using GraphPad Prism software.
Protein A purified chimeric antibodies were examined by size exclusion chromatography and quantified with a UV-Vis spectrophotometer (NanoDrop; mAU=milli absorbance units).

[10] = target: T2, cynomolgus PD-L1, his tagged …; assay: BLI (ForteBio Octet), cPD-L1-his analyte, 1:1 fit
Method: as §1

[11] = target: T2, cynomolgus PD-L1, his tagged …; assay: BLI (ForteBio Octet), cPD-L1-his
Method: as §1, with “above. […]” for “above.”

[12] = target: T1, human PD-L1, his tagged (hPD-L1-his); assay: BLI (ForteBio Octet), hPD-L1-his; remark: listed apart in the source
Method: as §1, with “above. […]” for “above.”

T1 sequence (Q9NZQ7 19-238 limits assumed): as the sequence (G7PSE7 entry or part of it limits assumed, form in doubt) above, with T33A, S34A, N62S, Q68R, R82Q, L173F, A185T, I192T, L215H counted along it

Kd [1]: 1.76 nM
koff [1]: 0.000629 s⁻¹
kon [1]: 357000 M⁻¹ s⁻¹
Kd [2]: 1.82 nM
koff [2]: 0.000597 s⁻¹
kon [2]: 328000 M⁻¹ s⁻¹
B1: h769-N93T (h769.T), humanized 769-hIgG1 variant (antibody, V domains shown)
VH: EVQLVQSGAEVKKPGATVKISCKVSGFNIKDTYMHWVQQAPGKGLEWMGLIDPANDNTIYAEKFQGRVTITADTSTDTAYMELSSLRSEDTAVYYCAREGYGGSYGEGYWGQGTLVTVSS
VL: EIVMTQSPPTLSLSPGERVTLSCRASQSVSNDLSWYQQKPGQAPRLLIYYASIRFTGIPARFSGSGSGTDFTLTISSLQPEDFAVYYCQQDYTSPWTFGQGTKVEIK
notes: Human IgG1

Kd [3]: 0.266 nM
Kd [4]: 0.26 nM
IC50, nM (Function) [5]: 0.6 nM
Kd [6]: 0.0522 nM
Kd [7]: 0.23 nM
Bind PD-L1-CHO/CHO [8]: > 100 x
IC50 [9]: 2 nM
B2: 767-hIgG1 (chimeric PAL767) (antibody, V domains shown)
VH: EVQLQESGPSLVKPSQTLSLTCSVTGDSITSGYWNWIRKFPGNKLEYMGYISYTGSTYYNPSLKRRISITRDTSKNQYYLQLNSVTTEDTATYYCASQGGWLQAMDYWGQGTSVTVSS
VL: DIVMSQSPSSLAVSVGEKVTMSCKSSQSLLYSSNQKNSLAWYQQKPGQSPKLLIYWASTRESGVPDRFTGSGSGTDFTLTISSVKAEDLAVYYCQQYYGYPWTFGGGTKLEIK

Kd [3]: 0.994 nM
Kd [10]: 1.7 nM
B3: Avelumab (antibody, human IgG1, lambda, V domains shown)
VH: EVQLLESGGGLVQPGGSLRLSCAASGFTFSSYIMMWVRQAPGKGLEWVSSIYPSGGITFYADTVKGRFTISRDNSKNTLYLQMNSLRAEDTAVYYCARIKLGTVTTVDYWGQGTLVTVSS
VL: QSALTQPASVSGSPGQSITISCTGTSSDVGGYNYVSWYQQHPGKAPKLMIYDVSNRPSGVSNRFSGSKSGNTASLTISGLQAEDEADYYCSSYTSSSTRVFGTGTKVTVLG

Kd [3]: 0.724 nM
Kd [4]: 0.29 nM
IC50, nM (Function) [5]: 0.5 nM
Kd [6]: 1.64 nM
Kd [7]: 0.19 nM
Bind PD-L1-CHO/CHO [8]: > 100 x
IC50 [9]: 1.9 nM
B4: 785-hIgG1 (chimeric PAL785) (antibody, V domains shown)
VH: EVQLQESGPELVKPGTSVKMSCKASGYTFTSYVMHWVKQRPGQGLEWIGYINPYNDGSKYNEKFKGKATLTSDTSSSTAYMELSSLTSEDSAVYYCAKQTLDFWGQGTSVTVST
VL: DIVLTQSPASLAVSLGQRATISCRASESVEFYGTTLMQWYQQKPGQPPKLLIYAASNVESGVPARFSGSGSGTDFSLNIHPVEEGDIGMYFCQQSRKVPYTFGGGTKLEIK

Kd [3]: 0.867 nM
Kd [4]: 1.57 nM
IC50, nM (Function) [5]: 0.9 nM
Kd [6]: 0.043 nM
Kd [7]: 1.68 nM
Bind PD-L1-CHO/CHO [8]: > 100 x
IC50 [9]: 2.9 nM
B5: 788-hIgG1 (chimeric PAL788) (antibody, V domains shown)
VH: QVQLQQPGAELVKPGASVKLSCKASGYTFTSNWMNWVKQRPGRGLEWIGRIHPSDSETHYHQKFKSKATLTVDKSSSTAYIQLSSLTSEDSAVYYCAHSSGDYGRDYWGQGTTLTVSS
VL: NIVLTQSPASLAVSLGQRATISCRASESVDSYGNSFMHWYQQKPGQPPKLLIYLASNLQSGVPARFSGSGSRTDFTLTIDPVEADDAATYYCQQNNEDPWTFGGGTKLEIK

Kd [3]: 3.18 nM
Kd [4]: 3.63 nM
IC50, nM (Function) [5]: 1.5 nM
Kd [6]: 1.18 nM
Kd [7]: 4.98 nM
IC50 [9]: 4.6 nM
B6: 752-hIgG1 (chimeric PAL752) (antibody, V domains shown)
VH: EVQLQESGAELARPGASVKLSCKASGHAFTSDSINWVKQRIGQGLEWIGEIYPRSGNPYYNEKFKGKATLTADKSSSTAYMELRSLTSEDSAVYFCATDYYGRYFDVWGTGTTVTVSS
VL: DIQMTQSSFSFSVSLGDRVTIICKASEDIYNRLAWYQQKPGNTPRLLISGATSLETGVPSRFSGSGSGKDYTLSITSLQTEDVATYYCQQYWSTPWTFGGGTKLEIK

Kd [3]: 0.55 nM
Kd [4]: 0.17 nM
IC50, nM (Function) [5]: 0.5 nM
Kd [11]: 2.92 nM
koff [11]: 0.000685 s⁻¹
kon [11]: 238000 M⁻¹ s⁻¹
Kd [6]: 0.64 nM
Kd [7]: 0.12 nM
Kd [12]: 2.59 nM
koff [12]: 0.000967 s⁻¹
kon [12]: 373000 M⁻¹ s⁻¹
Bind PD-L1-CHO/CHO [8]: > 100 x
IC50 [9]: 1.6 nM
B7: 769-hIgG1 (chimeric PAL769) (antibody, V domains shown)
VH: EVQLQESGAELVKPGASVTLSCTASGFNIKDTYMHWVKQRPEQGLEWIGRIDPANDNTKYDPKFQDKATITADTSSDTAYLRLSSLTSEDTAVYYCAREGYGGSYGEGYWGQGTTLTVSS
VL: SIVMTQTPKFLLVSAGDRVTITCKASQSVSNDVIWYQQKPGQSPKLLIYYASIRFTGVPDRFAGSGYGTDFTFTINTVQAEDLAVYFCQQDYNSPWTFGGGTKLEIK

Kd [3]: 1.12 nM
Kd [4]: 1.02 nM
IC50, nM (Function) [5]: 1 nM
Kd [6]: 1.43 nM
Kd [7]: 1.17 nM
B8: 771-hIgG1 (chimeric PAL771) (antibody, V domains shown)
VH: EVQLQESGAELVKPGASVKLSCTASGFNIKDTYMHWVKQRPEQGLEWIGRIDPANGNTKYDPKFPGKATITADTSSNTAYLQLSSLTSEDAAVYYCARPFNYRFYDVYYFDYWGQGTTLTVST
VL: QIVLTQSPAIMSASPGEKVTMTCSASSSVSYMYWYQQKPGSSPRLLIYDTSNLASGVPLRFSGSGSGTSYSLTLSRMEAEDAATYYCQQWSTYPLTFGAGTKLELK
